Experimental data published in patent publication US20240287161A1 (NATIONAL UNIVERSITY CORPORATION TOTTORI UNIVERSITY, published 2024).

Key:
[1] = target: T1, HCoV-229E trimeric S protein (amino acids 12-1109) with T4 foldon, histidine tag and strep-tag (HCoV-229E, UniProt P15423 12-1112); assay: ELISA on coated S-trimeric antigen, anti-human IgG-HRP [Human IgG1, NT-108]
T1 chain: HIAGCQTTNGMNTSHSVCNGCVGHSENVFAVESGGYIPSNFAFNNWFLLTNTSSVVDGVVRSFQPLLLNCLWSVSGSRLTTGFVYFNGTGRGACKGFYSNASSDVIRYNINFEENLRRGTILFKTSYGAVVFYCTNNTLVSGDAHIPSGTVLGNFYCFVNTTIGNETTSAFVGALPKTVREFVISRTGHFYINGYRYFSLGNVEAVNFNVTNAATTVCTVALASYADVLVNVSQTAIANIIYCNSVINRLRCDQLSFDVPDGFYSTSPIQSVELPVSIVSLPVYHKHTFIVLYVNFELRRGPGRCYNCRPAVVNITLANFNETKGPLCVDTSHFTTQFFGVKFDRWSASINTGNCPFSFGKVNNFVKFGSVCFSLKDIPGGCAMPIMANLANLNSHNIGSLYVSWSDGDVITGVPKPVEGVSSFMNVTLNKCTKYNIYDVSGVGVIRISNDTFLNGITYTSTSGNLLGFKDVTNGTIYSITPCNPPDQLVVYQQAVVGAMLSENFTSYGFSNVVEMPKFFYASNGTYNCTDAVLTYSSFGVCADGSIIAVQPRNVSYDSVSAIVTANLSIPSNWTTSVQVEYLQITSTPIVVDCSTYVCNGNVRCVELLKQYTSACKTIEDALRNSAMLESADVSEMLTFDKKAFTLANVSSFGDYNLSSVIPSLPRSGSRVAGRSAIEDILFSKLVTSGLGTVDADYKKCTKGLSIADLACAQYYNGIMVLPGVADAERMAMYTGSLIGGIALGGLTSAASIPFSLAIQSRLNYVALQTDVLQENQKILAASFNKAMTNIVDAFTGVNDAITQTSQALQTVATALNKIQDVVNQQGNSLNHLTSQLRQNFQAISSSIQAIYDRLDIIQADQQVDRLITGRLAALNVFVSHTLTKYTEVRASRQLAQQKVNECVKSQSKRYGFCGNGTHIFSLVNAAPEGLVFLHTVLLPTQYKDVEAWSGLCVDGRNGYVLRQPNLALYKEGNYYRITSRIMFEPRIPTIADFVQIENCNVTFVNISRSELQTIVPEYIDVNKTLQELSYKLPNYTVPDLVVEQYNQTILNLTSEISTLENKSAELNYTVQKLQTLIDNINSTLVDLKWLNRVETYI

[2] = target: T2, HCoV-OC43 trimeric S protein (amino acids 12-1299) with T4 foldon, histidine tag and strep-tag (HCoV-OC43, UniProt P36334 12-1291); assay: as above
T2 chain: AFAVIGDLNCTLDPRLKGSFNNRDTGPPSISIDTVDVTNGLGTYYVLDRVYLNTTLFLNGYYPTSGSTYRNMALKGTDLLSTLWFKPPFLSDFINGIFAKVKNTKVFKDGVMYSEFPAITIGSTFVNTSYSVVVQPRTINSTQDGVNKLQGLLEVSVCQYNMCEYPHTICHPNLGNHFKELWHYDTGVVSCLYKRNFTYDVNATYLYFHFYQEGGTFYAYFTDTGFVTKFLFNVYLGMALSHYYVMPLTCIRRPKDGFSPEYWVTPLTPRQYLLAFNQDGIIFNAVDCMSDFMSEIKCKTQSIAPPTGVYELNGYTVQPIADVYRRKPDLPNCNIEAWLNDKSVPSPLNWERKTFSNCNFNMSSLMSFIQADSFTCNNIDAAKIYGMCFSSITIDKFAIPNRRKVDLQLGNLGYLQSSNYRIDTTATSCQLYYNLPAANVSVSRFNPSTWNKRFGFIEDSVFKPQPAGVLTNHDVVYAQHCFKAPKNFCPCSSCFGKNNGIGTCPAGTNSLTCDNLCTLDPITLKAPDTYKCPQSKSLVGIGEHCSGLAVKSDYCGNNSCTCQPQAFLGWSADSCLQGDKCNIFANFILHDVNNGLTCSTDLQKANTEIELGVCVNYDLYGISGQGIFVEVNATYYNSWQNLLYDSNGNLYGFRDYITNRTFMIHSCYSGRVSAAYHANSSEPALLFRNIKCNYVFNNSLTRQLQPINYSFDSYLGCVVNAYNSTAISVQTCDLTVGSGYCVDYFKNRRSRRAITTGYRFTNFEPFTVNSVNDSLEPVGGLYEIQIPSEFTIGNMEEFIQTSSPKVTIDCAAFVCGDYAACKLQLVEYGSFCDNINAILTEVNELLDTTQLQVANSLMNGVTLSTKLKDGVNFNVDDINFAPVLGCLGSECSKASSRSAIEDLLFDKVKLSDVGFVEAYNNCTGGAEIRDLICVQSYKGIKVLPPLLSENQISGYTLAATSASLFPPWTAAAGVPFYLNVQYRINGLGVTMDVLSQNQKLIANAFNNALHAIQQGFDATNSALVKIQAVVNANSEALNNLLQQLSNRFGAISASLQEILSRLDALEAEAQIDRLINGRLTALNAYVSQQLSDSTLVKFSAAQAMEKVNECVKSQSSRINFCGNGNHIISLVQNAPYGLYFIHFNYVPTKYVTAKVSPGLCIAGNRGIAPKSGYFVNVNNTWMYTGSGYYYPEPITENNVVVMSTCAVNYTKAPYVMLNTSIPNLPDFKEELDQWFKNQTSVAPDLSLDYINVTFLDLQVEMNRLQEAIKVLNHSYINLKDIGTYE

B1: NT-108 (recombinant human IgG1/kappa antibody) (antibody, V domains shown)
VH: EVQLQQSGPGLVKPSQTLSLTCSISGDSVSSNSAAWNWIRQSPSRGLEWLGRTYYRSKWYNDYAGTVKSRIAINPDTSKNQFSLHLNSVTPEDTAVYFCARVISVAGYAFDIWGQGTMVTVSS
VL: EIVLTQSPGTLSLSPGERATLSCRASQSVSSTFLAWYQQKPGQAPRLLIYGASYMATGIPDRFSGSGSGTDFTLTISRLEPEDFAVYYCQQYGSSLTFGGGTKLEIK
B1: no binding (tested: 1000 ng/ml) [1]; no binding (tested: 1000 ng/ml) [2].
